The series concerns MS2 coat protein. The experiment in a line: apparent KD of MS2 coat protein; designed switch direction (-1 OFF switch, 1 ON switch): 1; higher = weaker reporter binding. The gist of the method: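 On Illumina chips, designed RNA switches with common flanks were made by stalled E. coli RNA polymerase. Titrations with SNAP-549-labelled MS2 coat protein, doubling from 0.7 or 1.5 nM to 3 µM, were done with no input, with 200 uM small-molecule ligand, or with an oligonucleotide input. Apparent KD is the median per design over clusters, from curve fits of normalised cluster fluorescence.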

Where [1] appears, read: input ligand: microRNA oligo, concentration not stated.
Setting [2] is: Eterna round: R95, input ligand: FMN 200 uM.
The mark [3] stands for this setting: Eterna round: R95, input ligand: microRNA oligo, concentration not stated.
The mark [4] stands for this setting: Eterna round: R95, input ligand: none.

With “GCGAAGAGGUAAGGAUAUGCAUGGCGGAGACAUGAGGAUCACCCAUGUUGGAGACGAAAUCUAGGGUAGAAGGUACCGGGAAGC [ssng2 v2 b] (Eterna round: R96, puzzle: Same State NG 2)”, the “apparent KD of MS2 coat protein” value reads like this: (input ligand: FMN 200 uM) 75.4 nM; under setting [1], 70.2 nM; (input ligand: none) 110 nM.
For the sequence “GCGGAACAGGCCGACAUGAGGAUCACCCAUGUGGCCUCAUGUCAGGAUAUCGGGAAGAAGAAAACCGAGAAGGGACGGUGACGC [AK SSNG3-V2-33.2] (Eterna round: R96, puzzle: Same State NG 3)”, the “apparent KD of MS2 coat protein” value is, setting by setting: (input ligand: FMN 200 uM) 23.4 nM; under setting [1], 9.43 nM; (input ligand: none) 10.1 nM.
For “GCGGAACCUGACAUGAGGAUCACCCAUGUUCCGGAAACGGCACAGGAUAUCUGUCCGAAAAGGUCAGAGAAGGGUGUAAACCGC [Fiskers NG3ss - 97] (Eterna round: R96, puzzle: Same State NG 3)”, the “apparent KD of MS2 coat protein” value turned out to be 29 nM (input ligand: FMN 200 uM), 325 nM under setting [1] and 210 nM (input ligand: none).
On the same counts, the results for “GCGGACCUCACAUGAGGAUCACCCAUGUUGCGGAGACGCAAUGAGGAUAUCGAUGGGUUUCCCGUCGAGAAGGCAUAAAUCCGC [JL SSNG3 3.93 mod 4] (Eterna round: R96, puzzle: Same State NG 3)” are 109 nM, 44.5 nM and 56.6 nM.
In the same order, the values of “GCUACAUGAGGAUCACCCAUGUGUGCGUGGGAGUGAGUGGCUUAGGAUAUCUAUGACUUGAGUUGAGAGAAGGAGGAUUGCUGU [SS-NG3-LRO12] (Eterna round: R96, puzzle: Same State NG 3)” are 105 nM, 82.6 nM and 118 nM.
In the same order, the values of “GCUACGGCAGUAGGAUAUGUAGGAUAUGGCGAGAGCUAAGCUUGGAAGUCACUUCAGCCAGAAGGACAGAAGGACACCGUGAGG [pwkr ssNG2 2FMN + F9.16] (Eterna round: R96, puzzle: Same State NG 2)” are 125 nM, 22.5 nM and 24.7 nM.
As for “GCUAGAAAUAAAGCCAACAUGAGGAUCACCCAUGUAUGUUGGUAGGAUAUCGUAUGCAAAGCAUACGAGAAGGGCUAAUCUAGC [Mat - Same State NG 3 - JL Mod - D66] (Eterna round: R96, puzzle: Same State NG 3)”, the “apparent KD of MS2 coat protein” value stood at 90.8 nM (input ligand: FMN 200 uM), 57.4 nM under setting [1] and 90.2 nM (input ligand: none).
On to “GCUAGUAAAAUUGCUAACAUGAGGAUCACCCAUGUAUGUUGGCAGGAUAUCGUUUGCAAAGCAAACGAGAAGGGCUAAACUAGC [Mat - Same State NG 3 - JL Mod - D15] (Eterna round: R96, puzzle: Same State NG 3)”, for which the “apparent KD of MS2 coat protein” value by setting is: (input ligand: FMN 200 uM) 30.2 nM; under setting [1], 47.5 nM; (input ligand: none) 86.8 nM.
“GCUCGAAUCACAACCAACAUGAGGAUCACCCAUGUGUGUUGGUAGGAUAUCGUUUCUAAGGGAAACGAGAAGGGCCGAACGAGC [SameState NG3 #8] (Eterna round: R96, puzzle: Same State NG 3)”: the “apparent KD of MS2 coat protein” value reads like this: (input ligand: FMN 200 uM) 18.9 nM; under setting [1], 12.4 nM; (input ligand: none) 21.7 nM.
Regarding “GCUCGAUGAGCGAUUUACAUGAGGAUCACCCAUGUACGUGGGCAGGAUAUUUACGUGCGGUGUGUAGAGAAGGGCCCAUCGAGC [SameState NG3 #71] (Eterna round: R96, puzzle: Same State NG 3)”, the “apparent KD of MS2 coat protein” value is 62.5 nM (input ligand: FMN 200 uM), 206 nM under setting [1] and 332 nM (input ligand: none).
On the same counts, the results for “GCUCGAUGUGUUGUCUACAUGAGGAUCACCCAUGUAGGUGCGGAGGAUAUCUACGUGCUUUAUGUAGAGAAGGUCGUAUCGAGC [SameState NG3 #86] (Eterna round: R96, puzzle: Same State NG 3)” are 21.5 nM, 54.3 nM and 71.4 nM.
On the same counts, the results for “GCUCGCACGAUGACCCACAUGAGGAUCACCCAUGUGCGUGGGCAGGAUAUCUAGAUUAAGGAUGUAGAGAAGGGUUGAGCGAGC [SameState NG3 #25] (Eterna round: R96, puzzle: Same State NG 3)” are 555 nM, 136 nM and 302 nM.
On the same counts, the results for “GCUCGCACGAUGACCCACAUGAGGAUCACCCAUGUGCUUGGGCAGGAUAUCUAGAUUAAGGAUGUAGAGAAGGGUUGAGCGAGC [SameState NG3 #27] (Eterna round: R96, puzzle: Same State NG 3)” are 308 nM, 113 nM and 230 nM.
For “GCUCGCGGCGCAGGAUAUGGGUGCCUGUACAUGAGGAUCACCCAUGUUAAGGGACGGAAAACGAACCAGAAGGGCGUCGCAAGC [Zaorquor] (Eterna round: R96, puzzle: Same State NG 2)”, the “apparent KD of MS2 coat protein” value is 56 nM (input ligand: FMN 200 uM), 167 nM under setting [1] and 140 nM (input ligand: none).
As to “GCUCGGACGAUGACCCACAUGAGGAUCACCCAUGUGCGUGGGCAGGAUAUCUAGAUUAAGGAUGUAGAGAAGGGUCGACCGAGC [SameState NG3 #30] (Eterna round: R96, puzzle: Same State NG 3)”, the “apparent KD of MS2 coat protein” value reads like this: (input ligand: FMN 200 uM) 415 nM; under setting [1], 58.4 nM; (input ligand: none) 386 nM.
In the case of “GCUCUACAUGAGGAUCACCCAUGUCCGAACGCGCGAGGAUAUGCAUGGGCGAAAGCUGGUGCAGAAGGCGUGGGAC [2theCorner] (puzzle: Same State 1)”, the “apparent KD of MS2 coat protein” value is 315 nM under setting [2], 202 nM under setting [3] and 358 nM under setting [4].
For “GCUCUACAUGAGGAUCACCCAUGUUCGGACGCACGAGGAUAUGCAUGGGCGAAAGCUGGUGCAGAAGGCGUGGGAC [inDCorner] (puzzle: Same State 1)”, the “apparent KD of MS2 coat protein” value under setting [3] worked out at 150 nM.
Turning to “GCUGCAAGGGCAGGAUAUGGGUCCAGAGCGCAAGUGCGCCCUGGUACAUGAGGAUCACCCAUGUCCCAGAAGGGCCCAAGCAGC [Vetierribi] (Eterna round: R96, puzzle: Same State NG 2)”, the “apparent KD of MS2 coat protein” value is, setting by setting: (input ligand: FMN 200 uM) 12.9 nM; under setting [1], 68.9 nM; (input ligand: none) 87.6 nM.
Turning to “GCUGCACAUGAGGAUCACCCAUGUCUUCGGAGUCGAGGAUAUGGUCACUGUAAACAGUGGCCAGAAGGCGAGUAGC [SS1 - Son of Teenbexe v6] (puzzle: Same State 1)”, the “apparent KD of MS2 coat protein” value reads like this: under setting [2], 30.8 nM; under setting [3], 37.8 nM; under setting [4], 32.3 nM.
For the sequence “GCUGGAAACCACAUGAGGAUCACCCAUGUUCCGGAAACGGCACAGGAUAUCUGUCCGAAAAGGUCAGAGAAGGGUGUAACCAGC [Fiskers NG3ss - 86] (Eterna round: R96, puzzle: Same State NG 3)”, the “apparent KD of MS2 coat protein” value worked out at 190 nM (input ligand: FMN 200 uM), 338 nM under setting [1] and 245 nM (input ligand: none).

Source of the values: the supplement of paper PMC9170038.
